# Reference: the supplement of paper PMC10567573
# B1: ZNF232 (parent)
# chain: FPKSEQVYLHFLSVVTEDGPEPKD
# B2: PWWP2B (parent)
# chain: TIRLRPRQVLCEKCKSTLSPPEAS
# Variants of: B1
# Test: protein stability index of a GFP-peptide fusion (GPS, HEK-293T) (PSI 1-6); higher = more stable
# Conditions: c terminus: a fixed tail appended
# 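Also: lentivirally expressed fusions sorted by FACS into six bins by GFP to DsRed ratio, PSI derived from sequencing read proportions per bin multiplied by bin number.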
row,Variant,protein stability index
1,F1S,3.69
2,F1W,3
3,F1A,4.31
4,F1C,4.31
5,F1P,4.28
6,F1K,4.44
7,F1G,3.98
8,F1Y,2.01
9,F1D,4.86
10,F1M,4.15
11,F1L,3.95
12,F1N,4.29
13,F1E,4.82
14,F1Q,4.75
15,F1V,3.92
16,F1R,3.89
17,F1H,3.88
18,F1T,4.05
19,F1I,3.73
20,P2K,2.91
21,P2A,1.91
22,P2H,1.54
23,P2E,4.04
24,P2W,2.44

row,Variant,protein stability index
1,P2F,2.37
2,P2I,2.72
3,P2N,2.8
4,P2C,2.75
5,P2L,2.29
6,P2Q,2.14
7,P2Y,2.89
8,P2V,2.26
9,P2G,2.78
10,P2D,3.92
11,P2T,2.68
12,P2M,2.28
13,K3A,2.85
14,K3L,3.27
15,K3P,2.46
16,K3E,3.36
17,K3I,2.23
18,K3H,2.09
19,K3N,2.71
20,K3C,2.51
21,K3F,2.61
22,K3G,3.07
23,K3D,2.35
24,K3M,2.69

# Variants of: B2
# Test: as above
# Conditions: c terminus: a fixed tail appended
row,Variant,protein stability index
1,P21I,2.67
2,P21Y,2.42
3,P21C,2.72
4,P21S,3.5
5,P21K,3.21
6,P21E,3.63
7,P21F,2.56
8,P21A,3.29
9,P21V,2.95
10,P21G,2.78
11,P21M,2.73
12,P21Q,2.98
13,P21N,2.95
14,P21W,2.35
15,P21L,2.08
16,P21D,3.89
17,P21T,2.69
18,P21H,2.79
19,P21R,2.72
20,V9Y,2.54
21,E22A,2.66
22,E22L,2.85
23,E22I,2.09
24,E22Q,2.58

row,Variant,protein stability index
1,E22Y,2.31
2,E22K,2.62
3,E22F,2.02
4,E22H,2.34
5,E22M,2.4
6,E22P,2.69
7,E22T,3.15
8,E22D,3.41
9,E22W,1.94
10,E22G,2.18
11,E22C,2.42
12,E22N,2.46
13,E22R,2.32
14,E22S,2.81
15,E22V,3.18
16,T17K,2.62
17,T17M,2.77
18,T17I,2.88
19,T17A,3.33
20,T17F,2.56
21,T17P,3.44
22,T17C,2.5
23,T17Q,2.78
24,T17N,2.76

row,Variant,protein stability index
1,T17W,1.89
2,T17G,2.82
3,T17D,3.19
4,T17V,2.48
5,T17H,2.76
6,T17L,3
7,T17E,3.97
8,T17Y,2.18
9,T17R,2.77
10,T17S,2.96
11,E12P,2.99
12,E12K,2.42
13,E12Q,2.33
14,E12N,2.81
15,E12H,3.03
16,E12S,3.01
17,E12R,3.08
18,E12A,2.59
19,E12I,1.93
20,E12C,2.26
21,E12V,2.39
22,E12W,2.28
23,E12F,2.25
24,E12T,2.82

row,Variant,protein stability index
1,E12D,3.28
2,E12G,2.59
3,E12Y,2.2
4,E12M,2.26
5,E12L,1.97
6,L18S,2.87
7,L18K,3.11
8,L18R,2.49
9,L18F,2.89
10,L18V,3.18
11,L18H,3.85
12,L18I,3.03
13,L18Y,2.83
14,L18C,3.15
15,L18W,1.96
16,L18T,3.08
17,L18E,3.92
18,L18Q,3.05
19,L18G,3.7
20,L18M,3.94
21,L18P,3.94
22,L18A,2.86
23,L18N,3.63
24,L18D,3.78

row,Variant,protein stability index
1,K13E,3.32
2,K13Y,2.24
3,K13Q,2.83
4,K13N,2.78
5,K13M,2.84
6,K13A,2.72
7,K13I,2.73
8,K13C,2.74
9,K13H,2.53
10,K13S,3
11,K13L,1.81
12,K13T,2.39
13,K13W,2.49
14,K13F,2.46
15,K13P,3.22
16,K13G,2.6
17,K13R,3.37
18,K13V,2.71
19,K13D,3.39
20,C11E,4.15
21,C11F,2.53
22,C11N,3.62
23,C11M,2.86
24,C11T,3.6

row,Variant,protein stability index
1,C11S,3.73
2,C11P,3.46
3,C11R,3.4
4,C11L,2.84
5,C11G,3.85
6,C11I,3.33
7,C11V,3.25
8,C11Q,3.57
9,C11W,2.23
10,C11H,3.13
11,C11A,3.06
12,C11K,3.58
13,C11D,3.93
14,C11Y,3.25
15,P20M,2.55
16,P20G,3.29
17,P20T,2.76
18,P20A,2.79
19,P20H,2.24
20,P20E,3.22
21,P20Q,3.03
22,P20K,2.66
23,P20D,3.5
24,P20V,2.9

row,Variant,protein stability index
1,P20R,2.65
2,P20I,2.44
3,P20C,2.87
4,P20Y,2.42
5,P20W,2.45
6,P20F,2.26
7,P20S,2.79
8,P20L,2.41
9,P20N,2.63
10,S16I,2.66
11,S16M,2.94
12,S16G,3.07
13,S16V,2.61
14,S16N,3.34
15,S16H,2.76
16,S16E,3.65
17,S16T,2.92
18,S16R,3.2
19,S16C,2.98
20,S16D,2.78
21,S16W,1.96
22,S16K,3.09
23,S16F,2.18
24,S16Y,2.27

row,Variant,protein stability index
1,S16L,2.59
2,S16A,3.08
3,S16P,2.73
4,S16Q,3.35
5,S19T,2.37
6,S19N,3.25
7,S19Q,3.01
8,S19H,2.68
9,S19A,3.02
10,S19Y,2.94
11,S19D,3.68
12,S19R,2.59
13,S19I,3.35
14,S19G,2.29
15,S19C,2.99
16,S19W,1.84
17,S19P,3.16
18,S19K,2.56
19,S19L,2.72
20,S19F,2.83
21,S19V,3.18
22,S19E,3.32
23,S19M,2.74
24,K15C,2.41

row,Variant,protein stability index
1,K15Y,2.73
2,K15R,2.59
3,K15E,3.72
4,K15G,2.83
5,K15A,2.71
6,K15L,2.76
7,K15P,4.03
8,K15N,3.26
9,K15T,3.07
10,K15Q,2.72
11,K15V,2.71
12,K15I,2.51
13,K15H,2.57
14,K15D,3.58
15,K15F,3.01
16,K15W,2.76
17,K15M,2.79
18,K15S,2.74
19,L10V,3.61
20,L10F,1.94
21,L10H,3.3
22,L10S,3.13
23,L10Y,2.5
24,L10C,3.21

row,Variant,protein stability index
1,L10N,3.53
2,L10A,3.44
3,L10T,3.43
4,L10W,2.48
5,L10Q,3.53
6,L10M,2.83
7,L10I,2.83
8,L10G,3.17
9,L10D,3.9
10,L10R,2.84
11,L10K,3.38
12,L10E,3.35
13,L10P,3.37
14,S24P,2.9
15,S24C,2.99
16,S24M,1.97
17,S24E,3.28
18,S24A,2.64
19,S24N,2.98
20,S24G,2.6
21,S24D,3.44
22,S24Q,3.09
23,S24W,1.93
24,S24L,2.66

row,Variant,protein stability index
1,S24H,2.63
2,S24T,3.25
3,S24K,2.7
4,S24F,2.36
5,S24I,2.78
6,S24V,2.62
7,S24R,3.02
8,S24Y,2.89
9,C14W,2.58
10,C14M,3.44
11,C14H,3.52
12,C14L,3.13
13,C14V,3.52
14,C14P,4.29
15,C14N,4.05
16,C14I,3.64
17,C14K,4.05
18,C14R,3.32
19,C14E,4.23
20,C14G,4.08
21,C14D,4.04
22,C14T,4.22
23,C14F,3.19
24,C14Q,4.05

row,Variant,protein stability index
1,C14S,3.84
2,C14Y,3.45
3,C14A,3.85
4,A23P,3.3
5,A23F,2.43
6,A23G,2.87
7,A23V,2.91
8,A23L,2.47
9,A23Q,3.94
10,A23R,2.73
11,A23S,2.75
12,A23I,2.61
13,A23D,3.54
14,A23C,3.15
15,A23K,3.02
16,A23Y,2.47
17,A23W,1.96
18,A23M,3.01
19,A23H,2.83
20,A23T,2.99
21,A23N,3.12
22,A23E,3.49
